In the RNAGym collection of RNA variant scans (doi:10.1073/pnas.2313332121):

B1: TPR t1 (parent)
chain: GACCAAUCUGCCCUCAGAGCUCGAGAACAUCUUCGGAUGCAGAGGAGGCAGGCUUCGGUGGCGCGAUAGCGCCAACGUCCUCAACCUCCAAUGCAUCCCACCACAUGAUGAUGCCUGAAGAGCCUUGGUUUUUUG

Variants of: B1
Assay: polymerase ribozyme fitness, log enrichment relative to wild type (log ratio); higher = more active; in vitro selection for triplet polymerase activity
In short: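 A single round of triplicate in vitro selection, including frozen incubation at −7 °C, was applied to PCR-built, transcribed mutant libraries of each subunit of a heterodimeric triplet polymerase ribozyme. Illumina sequencing of input and output libraries retained genotypes with ≥10 input reads and ≥1 read per output. Fitness is the base-2 logarithm of genotype enrichment divided by wild-type enrichment, from inverse-variance-weighted replicate averages.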

Row | Variant | polymerase ribozyme fitness (log ratio)
1 | G63U C89G | -1.88
2 | A66C C86U C114G U129G | -4.68
3 | G63U C94G A121U | 0.0576
4 | C64A C123A | -3.79
5 | C64A C123G | -3.71
6 | C64A C123U | -4.1
7 | G69A C79A A111G | -5.28
8 | A68U G69A | -6.04
9 | A68U C79A C104A A111U | -8.01
10 | G63U U125A | -1.51
11 | A66U A90G A91G A103G G107C A121G | -5.84
12 | A66G A83C C89U A95C | -2.97
13 | A66G C72G A95U G117U U132C | -6.16
14 | C64U C123U | 1.23
15 | C64U C123G | 1.86
16 | C64U A103C G117U | -6.58
17 | G63U C104U | -1.36
18 | G65U C72A | -5.48
19 | A68G U81A | -4.45
20 | C64U A100U | -0.493
21 | A68U U78C | -6.34
22 | G65C C85U A108U C123G | -7.43
23 | C64U G120C | 0.769
24 | C64U A103U | -3.47

Row | Variant | polymerase ribozyme fitness (log ratio)
25 | G63U U106G | -3.21
26 | C64G U87A C124A | -5.74
27 | G63U G77A | -3.45
28 | C64U C86A G122A U132A | -2.78
29 | G63U U67A | -6.27
30 | A66U G71A | -2.53
31 | C64U G127U | -0.401
32 | A68G A103C | -5.02
33 | A66U C73A C85G | -2.04
34 | C64U C70A A111C C115G G128U | -5.81
35 | A68U G69C A121C | -3.61
36 | A68U C123U | -5.66
37 | C64A U106C | -6.82
38 | A68G A100C | -4.96
39 | C64U C86A G135U | -2.35
40 | A66C C85G U130A | -3.4
41 | G63U U131C U132A | -1.24
42 | G63U G77U U109A G135U | -7.04
43 | C64G G120C | -4.47
44 | G65A C72U | -6.47
45 | C64G C123U | -3.63
46 | C64G C123G | -5.33
47 | A66G G122A U129C | -2.27
48 | A66U C76G U78A U106A | -0.894

Row | Variant | polymerase ribozyme fitness (log ratio)
49 | C64U A90U A100U | -3.1
50 | A66C U112A G128C | -4.27
51 | G69A C82U | -2.48
52 | C64U A111C C115A | -4.52
53 | A68G C73U C124U G135U | -3.48
54 | C64U C124A | 1.41
55 | A68G U87G A118U U132A | -2
56 | A66U C72G | -1.63
57 | C64U C82U G93U C94U U96C C123U | -3.01
58 | A68G C102A | -6.51
59 | G63U C94A A108G | -5.53
60 | C64U G65A | -4.3
61 | A66C C85G U106A | -2.61
62 | C64U C94U C102G | -7.24
63 | G63U G120U | -0.921
64 | G69A C101A | -3.72
65 | G69A C101U | -2.16
66 | G69A A111U U130A | -6.09
67 | A66G C79G U130C | -3.06
68 | A66U U116G | -3.73
69 | C64U A83U A95G G127C | -2.12
70 | A66G G77A | -1.13
71 | A66G U87A | -0.982
72 | C64U C89U C123U | 0.715

Row | Variant | polymerase ribozyme fitness (log ratio)
73 | C64U A90U | -0.99
74 | G65A A111C | -5.66
75 | A68U C124A | -4.62
76 | A68U C124G | -4.93
77 | G69A A83U | -3.05
78 | G63U U109G | -6.35
79 | G65A G110A | -5.47
80 | C64A G117A | -6.29
81 | G65A U106G | -6.66
82 | G69A C76A C123U | -5
83 | A66C G69C C97G C101A G107A U112G U130G | -6.88
84 | G69A A111G | -2.61
85 | G63U G127U | -1.73
86 | C64U A84C | 0.992
87 | C64U A84U | -0.154
88 | A68G U131A | -3.5
89 | G63U C124A | 0.583
90 | G63U C124G | 0.287
91 | A66C C72U C80U U126G G128A | -4.37
92 | C64G C124U | -5.45
93 | G63U C115G | -2.29
94 | G63U C115A | -1.22
95 | G63U C115U | -3.37
96 | G63U C101A U116C A119G G120U | -3.85

Row | Variant | polymerase ribozyme fitness (log ratio)
97 | G63U C99U U106A | -3.55
98 | A68U C102A | -6.73
99 | C64U G122A | -0.796
100 | A68G G110U | -3.66
101 | A68G G110C | -5.66
102 | A66C G120U U132C | -0.962
103 | A66U C88U | -0.564
104 | C64A U87A G93A U112A | -5.11
105 | C64U G107U | -5.43
106 | A66C U96C | -2.57
107 | A68G C94G G122A | -5.12
108 | A66C C124U | 0.285
109 | G63U C101U C115U C124U | -3.55
110 | A68U C82U A91G C101G C123U G128U | -5.8
111 | C64U U78A | -0.358
112 | C64G C115A G128A U130C | -5.49
113 | G63U U112C | -0.421
114 | G63U U112A | -0.0798
115 | C64G C114G | -6.51
116 | C64G C114U | -6.35
117 | C64U C73G C94U G120C | -3.99
118 | A68G U87G | -3.29
119 | G65A U112A | -2.74
120 | A66U A83G C86U | -2.39

Row | Variant | polymerase ribozyme fitness (log ratio)
121 | U67C G93U | -5.03
122 | G63U U116C U129A | -3.33
123 | G65U C123G | -4.68
124 | A66G U78C U87G | -0.388
125 | A68G A74G C79A | -4.8
126 | C64U G93C | -0.827
127 | A68G C124U | -1.26
128 | C64A U112C | -4.53
129 | G63U C101U | -2.57
130 | A66C C94A C114G G120C | -5.33
131 | G63U G120U U126A | -1.69
132 | G69A G77C | -4.57
133 | G69A G77A | -2.61
134 | A66C G93A A121G | -0.199
135 | G69A C86U | -3.19
136 | A68G A83C U96G U106A A121C | -1.7
137 | C64A G120A | -5.35
138 | C64A G120U | -6.12
139 | C64U C76U C89U U96A | -3.47
140 | A68G C73G U129C | -5.86
141 | C64U U112G | -0.0625
142 | C64U U112C | 0.999
143 | C64U U112A | 0.346
144 | C64A A90G U112G | -5.49

Row | Variant | polymerase ribozyme fitness (log ratio)
145 | C64U A84C C123G G135C | 1.41
146 | A68G C94A | -5.05
147 | A66C C70U G113A | -2.81
148 | C64U C85A U96G U125A | -2.82
149 | G63U U112A A119G | -0.127
150 | G69A C104U | -2.37
151 | C64U G110C | -3.51
152 | A66U A74G A118U | -0.793
153 | U67C C114U | -6.64
154 | C64U U87G G113A | -0.485
155 | G65A G69A U112C | -4.9
156 | G69A C115A | -1.77
157 | G69A C115U | -2.83
158 | C64A A83G U92G C99U C104A | -8.04
159 | A66G U131G | -2.21
160 | G63U C98A | -6.63
161 | G63U C98U | -2.09
162 | A66C C89A G117U | -6.24
163 | A66G G71U C94A A111C | -4.73
164 | A68G U78A C79U U106G | -6.12
165 | C64U G113U | -2.54
166 | C64U G113C | -0.91
167 | C64U A111G | 1.06
